{"source": "IntAct's records for PubMed 18319344", "parents": {"B1": {"name": "PTS system glucose-specific EIICB component (Escherichia coli (strain K12)), P69786 (parent)", "chain": "MFKNAFANLQKVGKSLMLPVSVLPIAGILLGVGSANFSWLPAVVSHVMAEAGGSVFANMPLIFAIGVALGFTNNDGVSALAAVVAYGIMVKTMAVVAPLVLHLPAEEIASKHLADTGVLGGIISGAIAAYMFNRFYRIKLPEYLGFFAGKRFVPIISGLAAIFTGVVLSFIWPPIGSAIQTFSQWAAYQNPVVAFGIYGFIERCLVPFGLHHIWNVPFQMQIGEYTNAAGQVFHGDIPRYMAGDPTAGKLSGGFLFKMYGLPAAAIAIWHSAKPENRAKVGGIMISAALTSFLTGITEPIEFSFMFVAPILYIIHAILAGLAFPICILLGMRDGTSFSHGLIDFIVLSGNSSKLWLFPIVGIGYAIVYYTIFRVLIKALDLKTPGREDATEDAKATGTSEMAPALVAAFGGKENITNLDACITRLRVSVADVSKVDQAGLKKLGAAGVVVAGSGVQAIFGTKSDNLKTEMDEYIRNH", "partner": "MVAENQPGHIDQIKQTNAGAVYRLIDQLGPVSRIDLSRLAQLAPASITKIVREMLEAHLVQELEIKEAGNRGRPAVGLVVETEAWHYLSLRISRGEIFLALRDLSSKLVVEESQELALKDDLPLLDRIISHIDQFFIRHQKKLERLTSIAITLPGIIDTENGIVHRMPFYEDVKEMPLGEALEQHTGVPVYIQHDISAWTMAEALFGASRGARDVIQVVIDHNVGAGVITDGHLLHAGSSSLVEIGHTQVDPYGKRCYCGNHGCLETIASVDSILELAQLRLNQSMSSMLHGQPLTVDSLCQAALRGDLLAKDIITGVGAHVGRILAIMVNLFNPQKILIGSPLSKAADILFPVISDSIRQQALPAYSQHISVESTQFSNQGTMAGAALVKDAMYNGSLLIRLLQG"}}, "data": [{"variants_of": "B1", "conditions": "with mlc_ecoli mlc", "values": [{"variant": "MFKNAFANLQKVGKSLMLPVSVLPIAGILLGVGSANFSWLPAVVSHVMAEAGGSVFANMPLIFAIGVALGFTNNDGVSALAAVVAYGIMVKTMAVVAPLVLHLPAEEIASKHLADTGVLGGIISGAIAAYMFNRFYRIKLPEYLGFFAGKRFVPIISGLAAIFTGVVLSFIWPPIGSAIQTFSQWAAYQNPVVAFGIYGFIERCLVPFGLHHIWNVPFQMQIGEYTNAAGQVFHGDIPRYMAGDPTAGKLSGGFLFKMYGLPAAAIAIWHSAKPENRAKVGGIMISAALTSFLTGITEPIEFSFMFVAPILYIIHAILAGLAFPICILLGMRDGTSFSHGLIDFIVLSGNSSKLWLFPIVGIGYAIVYYTIFRVLIKALDLKTPGREDATEDAKATGTSEMAPALVAAFGGKENITNLDACITRLRVSVADVSKVDQAGLKKLGAAGVQVAGSGVQAIFGTKSDNLKTEMDEYIRNH", "note": "[V449Q]", "effect of a mutation on the interaction": "disrupting interaction"}, {"variant": "MFKNAFANLQKVGKSLMLPVSVLPIAGILLGVGSANFSWLPAVVSHVMAEAGGSVFANMPLIFAIGVALGFTNNDGVSALAAVVAYGIMVKTMAVVAPLVLHLPAEEIASKHLADTGVLGGIISGAIAAYMFNRFYRIKLPEYLGFFAGKRFVPIISGLAAIFTGVVLSFIWPPIGSAIQTFSQWAAYQNPVVAFGIYGFIERCLVPFGLHHIWNVPFQMQIGEYTNAAGQVFHGDIPRYMAGDPTAGKLSGGFLFKMYGLPAAAIAIWHSAKPENRAKVGGIMISAALTSFLTGITEPIEFSFMFVAPILYIIHAILAGLAFPICILLGMRDGTSFSHGLIDFIVLSGNSSKLWLFPIVGIGYAIVYYTIFRVLIKALDLKTPGREDATEDAKATGTSEMAPALVAAFGGKENITNLDACITRLRVSVADVSKVDQAGLKKLGAAGVVVFGSGVQAIFGTKSDNLKTEMDEYIRNH", "note": "[A451F]", "effect of a mutation on the interaction": "decreasing interaction"}, {"variant": "MFKNAFANLQKVGKSLMLPVSVLPIAGILLGVGSANFSWLPAVVSHVMAEAGGSVFANMPLIFAIGVALGFTNNDGVSALAAVVAYGIMVKTMAVVAPLVLHLPAEEIASKHLADTGVLGGIISGAIAAYMFNRFYRIKLPEYLGFFAGKRFVPIISGLAAIFTGVVLSFIWPPIGSAIQTFSQWAAYQNPVVAFGIYGFIERCLVPFGLHHIWNVPFQMQIGEYTNAAGQVFHGDIPRYMAGDPTAGKLSGGFLFKMYGLPAAAIAIWHSAKPENRAKVGGIMISAALTSFLTGITEPIEFSFMFVAPILYIIHAILAGLAFPICILLGMRDGTSFSHGLIDFIVLSGNSSKLWLFPIVGIGYAIVYYTIFRVLIKALDLKTPGREDATEDAKATGTSEMAPALVAAFGGKENITNLDACITRLRVSVADVSKVDQAGLKKLGAAGVVVAGSGVAAIFGTKSDNLKTEMDEYIRNH", "note": "[Q456A]", "effect of a mutation on the interaction": "disrupting interaction"}]}]}
